The target in test [1] is μ-opioid receptor (MOP) (Mus musculus, UniProt P42866).
The target of test [2] is T1, MOP (Mus musculus, UniProt P42866). The following applies: 60 min of agonist exposure.
For test [3], the target named is T1, MOP. To be noted: 60 min of agonist exposure. This is another data set of the same source.
The target of test [4] is hemagglutinin (HA)-tagged mouse µ-opioid receptor (MOP), not phosphorylated (mouse) (UniProt P42866). In words: saturation binding of [3H]DAMGO to membranes of HA-MOP-transfected HEK293 cells.
Sequence of hemagglutinin (HA)-tagged mouse µ-opioid receptor (MOP), not phosphorylated (mouse) (P42866 whole entry): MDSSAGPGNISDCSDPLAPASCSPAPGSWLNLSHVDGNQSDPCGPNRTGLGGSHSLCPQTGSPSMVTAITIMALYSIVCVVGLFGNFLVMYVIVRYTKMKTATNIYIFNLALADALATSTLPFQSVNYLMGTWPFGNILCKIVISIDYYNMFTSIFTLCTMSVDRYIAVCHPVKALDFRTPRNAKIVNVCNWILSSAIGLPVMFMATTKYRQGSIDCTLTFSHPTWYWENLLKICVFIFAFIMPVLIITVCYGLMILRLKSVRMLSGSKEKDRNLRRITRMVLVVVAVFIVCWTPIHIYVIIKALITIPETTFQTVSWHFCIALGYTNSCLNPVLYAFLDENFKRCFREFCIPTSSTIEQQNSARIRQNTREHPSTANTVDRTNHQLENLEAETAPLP
Test [5] has the same target. Description: 7TM phosphorylation assay: HA-MOP of untreated cells on anti-HA magnetic beads.
The target in test [6] is hemagglutinin (HA)-tagged mouse µ-opioid receptor (MOP), phosphorylated after DAMGO stimulation (mouse) (UniProt P42866). In words: 7TM phosphorylation assay: HA-MOP of DAMGO-treated cells on anti-HA magnetic beads.
Test [7] has the same target. Description: 7TM phosphorylation assay: HA-MOP on anti-HA magnetic beads, rabbit primary antibody, enzyme-labeled secondary antibody.

T1 sequence (P42866 whole entry): as above
Sequence of μ-opioid receptor (MOP) (P42866 whole entry): as above

As for `C[C@@H](NC(=O)[C@@H](N)Cc1ccc(O)cc1)C(=O)NCC(=O)N(C)[C@@H](Cc1ccccc1)C(=O)NCCO` [DAMGO, [D-Ala2,N-MePhe4,Gly-ol]-enkephalin], the “extent of MOP phosphorylation resulting from GRK2/3 recruitment” value in test [1] is “full phosphorylation”. Also, the “recruitment of GRK2 and GRK3 to MOP” value in test [2] is given as “high efficiency”. Also, the “β-arrestin1 and β-arrestin2 recruitment” value in test [3] was “virtually identical to those of DAMGO-induced MOP phosphorylation”.

In the case of `CCCCCCCCCCCCCC(=O)O[C@@H]1[C@@H](C)[C@@]2(O)[C@@H](C=C(CO)C[C@]3(O)C(=O)C(C)=C[C@@H]23)[C@@H]2C(C)(C)[C@]12OC(C)=O` [PMA, phorbol 12-myristate 13-acetate], the “T370 phosphorylation of MOP (heterologous, PKC activation)” value in test [1] is “potent and selective phosphorylation of T370”.

“[D-Ala2,N-MePhe4,Gly-ol]-enkephalin (DAMGO) (peptide)” yielded a functional MOPs per cell (saturation binding) (MOPs per cell) in test [4] of 300000.

As to anti-np-MOP antibody (7TM0319N), the optical density (OD) read at 405 nm in test [5] and in test [6] was 0.8 OD at 405 nm throughout.

anti-pS375-MOP antibody (7TM0319C): the values for the optical density (OD) read at 405 nm in test [5] and in test [7] were 0.2 OD at 405 nm and 1.2 OD at 405 nm, respectively.

These data come from patent US20250003976A1, “ANTIBODIES TARGETING PHOSPHORYLATED SEVEN-TRANSMEMBRANE RECEPTORS” (7TM ANTIBODIES GMBH, priority 2021, published 2025).
